Publication PMC5420313

Target: GST-Dyn2(DQR)_(motor) (D1406A/Q1407A/R1410A mutant of GST-Dyn2_(motor)) (human) (UniProt Q8NCM8)

GST-Dyn2(DQR)_(motor) (D1406A/Q1407A/R1410A mutant of GST-Dyn2_(motor)), Q8NCM8 1091-4307
maximum velocity of microtubule gliding by the unstacked GST-Dyn2(DQR) (motor): 562 nm/s
